Assay results reported in paper PMC4997581.

B1: HCMV protein kinase pUL97, Flag-tagged (pUL97-Flag), P16788 1-707 (natural protein)
chain: MSSALRSRARSASLGTTTQGWDPPPLRRPSRARRRQWMREAAQAAAQAAVQAAQAAAAQVAQAHVDENEVVDLMADEAGGGVTTLTTLSSVSTTTVLGHATFSACVRSDVMRDGEKEDAASDKENLRRPVVPSTSSRGSAASGDGYHGLRCRETSAMWSFEYDRDGDVTSVRRALFTGGSDPSDSVSGVRGGRKRPLRPPLVSLARTPLCRRRVGGVDAVLEENDVELRAESQDSAVASGPGRIPQPLSGSSGEESATAVEADSTSHDDVHCTCSNDQIITTSIRGLTCDPRMFLRLTHPELCELSISYLLVYVPKEDDFCHKICYAVDMSDESYRLGQGSFGEVWPLDRYRVVKVARKHSETVLTVWMSGLIRTRAAGEQQQPPSLVGTGVHRGLLTATGCCLLHNVTVHRRFHTDMFHHDQWKLACIDSYRRAFCTLADAIKFLNHQCRVCHFDITPMNVLIDVNPHNPSEIVRAALCDYSLSEPYPDYNERCVAVFQETGTARRIPNCSHRLRECYHPAFRPMPLQKLLICDPHARFPVAGLRRYCMSELSALGNVLGFCLMRLLDRRGLDEVRMGTEALLFKHAGAACRALENGKLTHCSDACLLILAAQMSYGACLLGEHGAALVSHTLRFVEAKMSSCRVRAFRRFYHECSQTMLHEYVRKNVERLLATSDGLYLYNAFRRTTSIICEEDLDGDCRQLFPE
B2: pUL97 stably expressed in transduced HFFs, P16788 1-707 (natural protein)
chain: B1 chain

Molecular target: Cyclin B1 (human (endogenous in 293T and HFF)), P14635
Experiment: co-IP
Settings: remark: other sources report otherwise

Sequence of Cyclin B1 (human (endogenous in 293T and HFF)), P14635 (P14635 whole entry): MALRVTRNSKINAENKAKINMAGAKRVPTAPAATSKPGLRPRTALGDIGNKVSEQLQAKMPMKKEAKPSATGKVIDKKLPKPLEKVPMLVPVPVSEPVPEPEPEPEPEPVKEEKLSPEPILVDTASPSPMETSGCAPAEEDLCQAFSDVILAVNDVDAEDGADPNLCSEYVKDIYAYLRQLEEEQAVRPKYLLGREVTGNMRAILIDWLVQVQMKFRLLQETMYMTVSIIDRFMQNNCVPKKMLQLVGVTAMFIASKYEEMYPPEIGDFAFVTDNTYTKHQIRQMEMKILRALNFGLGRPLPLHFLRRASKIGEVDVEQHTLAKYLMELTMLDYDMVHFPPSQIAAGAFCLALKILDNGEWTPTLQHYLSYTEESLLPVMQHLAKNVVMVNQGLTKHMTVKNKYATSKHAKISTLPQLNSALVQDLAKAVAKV

Binder	pUL97 co-IP Western blot signal relative to cyclin B1 [%]
B1	100
B2	100
